Data taken from patent US5726024.

Key:
p53 (wild type) = p53 (wild type) (UniProt P02340); assay: cell_activity
[1] = target: p53as (alternatively spliced p53) (Mus musculus) (UniProt P02340); assay: cell_activity
[2] = CAT reporter, human Saos-2 cells
[3] = luciferase reporter, mouse (10)1 cells

| Substance | activity (p53 (wild type); [2]) [fold] | activity [1, 2] [fold] | activity (p53 (wild type); [3]) [fold] | activity [1, 3] [fold] |
| --- | --- | --- | --- | --- |
| PG13 CAT reporter, 13 repeats of p53-binding site | 14 | 9 |  |  |
| WAF-1 promoter (WWP-1 luciferase) |  |  | 15 | 14 |
